{"source": "patent US20050048070A1", "about": "(published 2005)", "key": {"[1]": {"target": "T1, K8(1-85)/K18(1-213) heterotypic complex (human, UniProt P05787 2-86; P05783 2-214)", "T1 construct": "Heterotypic complex of two GST fusion proteins; not shown: glutathione S-transferase (GST) fusion partner, modified pGEX-2T vector", "T1 chain 1": "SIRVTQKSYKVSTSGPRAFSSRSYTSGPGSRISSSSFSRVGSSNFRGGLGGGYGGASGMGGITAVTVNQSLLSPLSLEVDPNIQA", "T1 chain 2": "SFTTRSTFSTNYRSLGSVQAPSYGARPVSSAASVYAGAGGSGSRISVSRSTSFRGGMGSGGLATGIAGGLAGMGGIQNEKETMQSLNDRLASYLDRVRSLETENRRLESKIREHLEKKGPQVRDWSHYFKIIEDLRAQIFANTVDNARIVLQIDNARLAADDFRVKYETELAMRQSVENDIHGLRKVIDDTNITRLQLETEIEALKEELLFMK", "assay": "heterotypic association assay: blotted K8 proteins incubated with purified K18(1-213), then stained with COU-1"}, "[2]": {"target": "T2, K8(1-65) GST fusion protein (human, UniProt P05787 2-66)", "T2 construct": "Alone, not complexed; not shown: glutathione S-transferase (GST) fusion partner, modified pGEX-2T vector", "T2 sequence": "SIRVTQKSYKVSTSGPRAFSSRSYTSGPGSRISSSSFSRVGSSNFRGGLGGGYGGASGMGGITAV", "assay": "Western blot of SDS-PAGE-separated K8 GST fusion proteins, stained with COU-1 alone"}, "[3]": {"target": "T3, K8 (1-129)", "T3 construct": "not shown: N-terminal GST carrier (modified pGEX-2T) and any linker", "T3 chain": "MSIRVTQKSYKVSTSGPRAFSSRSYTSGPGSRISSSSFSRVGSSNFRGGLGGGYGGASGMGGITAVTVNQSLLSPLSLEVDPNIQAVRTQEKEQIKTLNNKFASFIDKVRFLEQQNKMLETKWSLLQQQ", "assay": "Western blot of SDS-PAGE-separated K8 GST fusion proteins, stained with COU-1 alone"}, "[4]": {"target": "T4, K8 (1-383)", "T4 construct": "not shown: N-terminal GST and its linker (modified pGEX-2T)", "T4 chain": "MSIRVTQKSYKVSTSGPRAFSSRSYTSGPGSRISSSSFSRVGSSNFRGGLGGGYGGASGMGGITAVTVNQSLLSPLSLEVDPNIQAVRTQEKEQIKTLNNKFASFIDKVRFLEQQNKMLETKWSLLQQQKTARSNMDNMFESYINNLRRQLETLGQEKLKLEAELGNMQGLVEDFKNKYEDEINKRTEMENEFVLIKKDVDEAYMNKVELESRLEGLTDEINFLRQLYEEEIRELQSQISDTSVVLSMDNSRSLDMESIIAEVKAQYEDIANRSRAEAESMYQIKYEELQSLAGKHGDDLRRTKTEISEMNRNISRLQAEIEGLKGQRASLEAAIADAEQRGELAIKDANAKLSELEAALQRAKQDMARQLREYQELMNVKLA", "assay": "Western blot of SDS-PAGE-separated K8 GST fusion proteins, stained with COU-1 alone"}, "[5]": {"target": "T5, recombinant intact K8 (GST fusion protein) (human, UniProt P05787 2-483)", "T5 construct": "Alone, not complexed with K18; GST placed first as in pGEX vectors; also called full length K8; cytokeratin 8; not shown: glutathione S-transferase (GST) fusion partner, modified pGEX-2T vector", "T5 chain": "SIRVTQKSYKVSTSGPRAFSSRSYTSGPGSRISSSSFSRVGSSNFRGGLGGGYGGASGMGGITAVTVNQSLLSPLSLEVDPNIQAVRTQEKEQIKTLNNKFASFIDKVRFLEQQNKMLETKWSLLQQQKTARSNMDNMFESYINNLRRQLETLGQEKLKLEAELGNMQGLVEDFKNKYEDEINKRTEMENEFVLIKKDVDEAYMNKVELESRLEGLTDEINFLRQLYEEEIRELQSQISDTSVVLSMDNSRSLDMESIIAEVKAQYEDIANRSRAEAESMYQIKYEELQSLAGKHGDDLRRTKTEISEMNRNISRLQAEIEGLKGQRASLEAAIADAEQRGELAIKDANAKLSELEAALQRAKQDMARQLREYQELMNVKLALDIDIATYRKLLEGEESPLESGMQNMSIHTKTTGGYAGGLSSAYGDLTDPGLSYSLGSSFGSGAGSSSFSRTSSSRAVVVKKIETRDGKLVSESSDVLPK", "assay": "Western blot of SDS-PAGE-separated K8 GST fusion proteins, stained with COU-1 alone"}, "[6]": {"target": "T6, K8 (1-299)", "T6 construct": "not shown: N-terminal GST and its linker (modified pGEX-2T)", "T6 chain": "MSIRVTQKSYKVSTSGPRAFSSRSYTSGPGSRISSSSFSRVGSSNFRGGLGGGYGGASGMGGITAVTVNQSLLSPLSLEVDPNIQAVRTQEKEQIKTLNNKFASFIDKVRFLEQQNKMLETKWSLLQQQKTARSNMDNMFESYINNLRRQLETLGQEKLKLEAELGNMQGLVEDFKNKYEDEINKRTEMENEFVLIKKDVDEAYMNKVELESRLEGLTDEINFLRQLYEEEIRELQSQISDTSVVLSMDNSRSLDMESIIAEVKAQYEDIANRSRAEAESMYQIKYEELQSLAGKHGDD", "assay": "Western blot of SDS-PAGE-separated K8 GST fusion proteins, stained with COU-1 alone"}, "[7]": {"target": "T7, cleaved K8/K18 heterotypic complexes from adenovirus-infected HeLa cells (human, UniProt P05787 2-483; P05783 75-430, limits assumed)", "T7 construct": "also called cytokeratin from HeLa cells infected with adenovirus", "T7 chain 1": "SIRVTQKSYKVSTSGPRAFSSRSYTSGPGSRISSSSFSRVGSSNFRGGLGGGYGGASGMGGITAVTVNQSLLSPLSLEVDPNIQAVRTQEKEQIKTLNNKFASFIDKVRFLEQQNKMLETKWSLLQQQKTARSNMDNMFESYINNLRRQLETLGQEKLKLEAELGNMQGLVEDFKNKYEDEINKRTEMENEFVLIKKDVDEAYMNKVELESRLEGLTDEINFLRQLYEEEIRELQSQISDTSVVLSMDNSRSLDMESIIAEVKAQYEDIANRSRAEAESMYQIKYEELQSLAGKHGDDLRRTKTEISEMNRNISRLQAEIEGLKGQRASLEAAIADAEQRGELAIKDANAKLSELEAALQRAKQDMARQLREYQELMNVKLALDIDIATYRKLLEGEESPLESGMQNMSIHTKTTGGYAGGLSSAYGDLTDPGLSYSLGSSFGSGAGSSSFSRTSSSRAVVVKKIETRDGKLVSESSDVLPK", "T7 chain 2": "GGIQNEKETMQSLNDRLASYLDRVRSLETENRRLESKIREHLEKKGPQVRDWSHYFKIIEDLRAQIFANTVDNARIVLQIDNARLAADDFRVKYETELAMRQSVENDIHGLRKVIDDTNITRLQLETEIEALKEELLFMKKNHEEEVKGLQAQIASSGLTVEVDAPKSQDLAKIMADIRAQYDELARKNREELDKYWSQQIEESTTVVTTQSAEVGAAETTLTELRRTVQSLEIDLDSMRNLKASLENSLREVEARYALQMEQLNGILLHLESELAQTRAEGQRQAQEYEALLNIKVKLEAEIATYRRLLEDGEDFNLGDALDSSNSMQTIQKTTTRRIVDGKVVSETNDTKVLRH", "assay": "Western blot of cytokeratin purified from adenovirus-infected HeLa cells (data not shown)"}}, "data": [{"binder": "human monoclonal IgM antibody COU-1 (antibody, V domains shown, Human IgM with kappa light chain, secreted by hybridoma B9165 (ECACC 87040201), purified from culture supernatant; also called HMab COU-1; HuMab COU-1) VH: GAEVKKPGASVKVSCKASDYTFSSYYMHWVRQAPGQGLEWMGIINPSGGSTSYAQKFQGRVTMTRDTSTNTVYMELSSLRSEDTAVYYCARDQVVVAATLSNYGMDVWGQGTTVTVSS VL: ELTQSPGTLSLSPGERATLSCRASQSVSSSYLAWYQQKPGQAPRLLIYDASNRATGIPARFSGSGSGTDFTLTISSLEPEDFAVYYCQQGTNWGIAFGQGTRLDIKR", "values": [{"measurement": "binding result", "setting": "[1]", "result": "no binding (tested: 5 µg/ml COU-1 (P-0285))"}, {"measurement": "binding result", "setting": "[2]", "result": "no binding (tested: 5 µg/ml COU-1 (P-0279))"}, {"measurement": "binding result", "setting": "[3]", "result": "no binding (tested: 5 µg/ml COU-1 (P-0279))"}, {"measurement": "binding result", "setting": "[4]", "result": "no binding (tested: 5 µg/ml COU-1 (P-0279))"}, {"measurement": "binding result", "setting": "[5]", "result": "no binding (tested: 5 µg/ml COU-1 (P-0279))"}, {"measurement": "binding result", "setting": "[6]", "result": "no binding (tested: 5 µg/ml COU-1 (P-0279))"}, {"measurement": "binding result", "setting": "[7]", "result": "no binding"}]}]}
